Ends that are not written are not given here.
Key:
[1] = biological target: T1, fibrinogen hole 'a' and hole 'b' (Homo sapiens, UniProt P02675+P02679); settings: cited from earlier work
T1 sequence (P02679 27-433 limits assumed): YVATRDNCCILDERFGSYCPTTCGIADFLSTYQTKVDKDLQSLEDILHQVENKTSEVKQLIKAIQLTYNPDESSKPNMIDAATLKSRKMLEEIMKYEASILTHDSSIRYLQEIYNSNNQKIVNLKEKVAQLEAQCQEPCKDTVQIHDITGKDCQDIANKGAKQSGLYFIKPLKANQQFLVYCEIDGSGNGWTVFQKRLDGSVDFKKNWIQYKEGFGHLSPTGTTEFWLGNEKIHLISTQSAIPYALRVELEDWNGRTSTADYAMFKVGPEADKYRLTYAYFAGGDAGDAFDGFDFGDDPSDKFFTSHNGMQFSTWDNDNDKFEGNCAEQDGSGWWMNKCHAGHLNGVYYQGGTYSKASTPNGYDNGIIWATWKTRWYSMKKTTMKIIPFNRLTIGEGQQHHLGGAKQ
T1 sequence (P02675 31-491): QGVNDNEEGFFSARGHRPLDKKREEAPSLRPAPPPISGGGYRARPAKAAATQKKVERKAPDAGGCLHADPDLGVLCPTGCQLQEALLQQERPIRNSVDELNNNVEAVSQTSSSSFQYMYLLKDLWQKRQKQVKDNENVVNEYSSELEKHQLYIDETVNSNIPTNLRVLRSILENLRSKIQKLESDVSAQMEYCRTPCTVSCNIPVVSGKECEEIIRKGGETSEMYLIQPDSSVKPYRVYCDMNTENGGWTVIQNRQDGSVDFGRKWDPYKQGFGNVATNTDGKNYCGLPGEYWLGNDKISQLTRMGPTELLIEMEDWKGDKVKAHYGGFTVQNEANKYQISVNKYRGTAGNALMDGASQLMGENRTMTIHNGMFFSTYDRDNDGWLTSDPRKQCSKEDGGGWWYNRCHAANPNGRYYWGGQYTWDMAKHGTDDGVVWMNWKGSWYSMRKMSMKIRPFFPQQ
T1 sequence (P02671 20-629 partner limits assumed): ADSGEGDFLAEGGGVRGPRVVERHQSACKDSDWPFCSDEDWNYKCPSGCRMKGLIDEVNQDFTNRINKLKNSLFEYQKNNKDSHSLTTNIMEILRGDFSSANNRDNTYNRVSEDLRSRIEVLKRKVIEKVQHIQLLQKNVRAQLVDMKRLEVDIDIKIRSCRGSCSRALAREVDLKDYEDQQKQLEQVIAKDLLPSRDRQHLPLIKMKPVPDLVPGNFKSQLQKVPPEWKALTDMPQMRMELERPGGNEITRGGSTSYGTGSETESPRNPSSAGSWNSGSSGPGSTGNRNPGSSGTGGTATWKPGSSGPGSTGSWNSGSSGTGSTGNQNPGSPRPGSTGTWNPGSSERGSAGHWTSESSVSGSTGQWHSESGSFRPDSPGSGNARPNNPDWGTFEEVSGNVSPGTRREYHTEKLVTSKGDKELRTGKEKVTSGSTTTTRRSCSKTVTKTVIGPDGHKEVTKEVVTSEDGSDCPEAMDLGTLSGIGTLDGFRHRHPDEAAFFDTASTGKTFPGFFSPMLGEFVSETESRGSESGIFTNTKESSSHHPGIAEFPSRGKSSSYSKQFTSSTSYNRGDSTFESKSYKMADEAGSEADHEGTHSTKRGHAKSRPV

[2] = biological target: T2, purified human fibrinogen (Homo sapiens, UniProt P02675+P02679); assay: Polymerisation (clotting) of purified fibrinogen, Sigma Amelung KC4 Delta coagulation analyser; format: biochemical
T2 sequence (P02679 27-433 limits assumed): T1 sequence (P02679 27-433 limits assumed)
T2 sequence (P02675 31-491): T1 sequence (P02675 31-491)
T2 sequence (P02671 20-629 partner limits assumed): T1 sequence (P02671 20-629 partner limits assumed)
Description: The ability of Peptide Dendrimer No. 12 to polymerise fibrinogen was assessed. 30 μl of dendrimer in solution, at concentration ranging from 0.005-2 mg/ml, was added to 100 μl purified human fibrinogen at 3 mg/ml (the level of fibrinogen found in the blood). Polymerisation of fibrinogen was analysed using a Sigma Amelung KC4 Delta coagulation analyser.
The concentration of each dendrimer was varied from 0.005-0.5 mg/ml.

[3] = biological target: T3, fibrinogen in human plasma (Homo sapiens, UniProt P02675+P02679); assay: Polymerisation of fibrinogen in human plasma, KC4 Delta coagulation analyzer; format: biochemical; settings: dendrimer 0.25 mg/ml, 30 μL to 100 μL human plasma, 37° C.
T3 construct: from tissue; host or cells: human plasma
T3 sequence (P02679 27-433 limits assumed): T1 sequence (P02679 27-433 limits assumed)
T3 sequence (P02675 31-491): T1 sequence (P02675 31-491)
T3 sequence (P02671 20-629 partner limits assumed): T1 sequence (P02671 20-629 partner limits assumed)
Description: 30 μL of each dendrimer (at a concentration of 0.25 mg/ml) was added to 100 μL human plasma at 37° C., and polymerisation of fibrinogen was determined using a Sigma Amelung KC4 Delta coagulation analyzer.

human fibrinogen = biological target: T4, human fibrinogen (Homo sapiens, UniProt P02675+P02679); assay: Clotting activity of dendrimers extracted from gelatin paste after gamma irradiation and storage; format: biochemical; settings: fibrinogen 3 mg/ml, 37° C.
T4 sequence (P02679 27-433 limits assumed): T1 sequence (P02679 27-433 limits assumed)
T4 sequence (P02675 31-491): T1 sequence (P02675 31-491)
T4 sequence (P02671 20-629 partner limits assumed): T1 sequence (P02671 20-629 partner limits assumed)
Description: 2 ml of solution of Peptide Dendrimer No. 12 or 13 was mixed with SURGIFLO Haemostatic Matrix (a hydrated flowable gelatin matrix) to form a paste of each peptide. Each paste was sterilised by irradiation with ^60Co gamma rays at a dose of 30 kGy, and then stored at room temperature. Samples of the sterilised pastes were used for testing after storage for two and four weeks.
After storage, peptide dendrimers were extracted from each paste using […] HEPES buffer. 30 μL of each extract (with a peptide concentration of about 0.25 mg/ml) was added to 100 μL of human fibrinogen at 3 mg/ml, and the ability of each dendrimer to polymerise fibrinogen (the ‘clotting’ activity) at 37° C. was determined using a Sigma Amelung KC4 Delta coagulation analyser. The polymerisation activity of non-irradiated control samples was also determined.

human fibrinogen (human) = human fibrinogen (human) (UniProt P02671); assay: cell-based or functional assay

GFIRPY
binding preference for hole 'a' / hole 'b' of fibrinogen [1]: binds strongly and preferentially to the ‘b’ hole of fibrinogen

GPRP
binding preference for hole 'a' / hole 'b' of fibrinogen [1]: binds strongly and preferentially to the ‘a’ hole of fibrinogen

GPRPFPA (listed as Homo sapiens)
binding preference for hole 'a' / hole 'b' of fibrinogen [1]: binds with high preference for hole ‘a’ in fibrinogen

GPRPG (listed as Homo sapiens)
binding preference for hole 'a' / hole 'b' of fibrinogen [1]: binds to hole ‘a’ and hole ‘b’ of fibrinogen, but with some preference for hole ‘a’

Peptide Conjugate No. 1 (peptide 1 GPRP; peptide 2 GPRP; also: peptide conjugate of two chains, linkage not given here)
activity of mixtures of peptide conjugate (2 mg/ml) with Peptide Dendrimer No. 3 or 4 in copolymerising with fibrinogen ([2]; conjugate 2 mg/ml, dendrimer 0.025-0.5 mg/ml): not active

Peptide Dendrimer No. 12 (peptide GPRPG; chain KKKKK)
copolymerisation with fibrinogen (clotting time) ([2]; dendrimer 0.005-2 mg/ml, fibrinogen 3 mg/ml): able to copolymerise with fibrinogen almost instantaneously, even at very low concentrations | clotting time at high dendrimer concentration ([2]; dendrimer concentrations above 0.5 mg/ml, fibrinogen 3 mg/ml): increase in clotting time | clotting ([2]; dendrimer range ~0.02-0.5 mg/ml): almost instantaneous clotting | ability to polymerise fibrinogen in human plasma [3]: able to polymerise fibrinogen in human plasma | clotting time in human plasma [3]: less than one | Clotting activity, Non-irradiated control (human fibrinogen; extract from SURGIFLO paste, about 0.25 mg/ml peptide, not irradiated): 1 s | Clotting activity, Storage for 2 weeks post irradiation (human fibrinogen; paste irradiated 30 kGy 60Co gamma, stored 2 weeks at room temperature, about 0.25 mg/ml): 1 s | Clotting activity, Storage for 4 weeks post irradiation (human fibrinogen; paste irradiated 30 kGy 60Co gamma, stored 4 weeks at room temperature, about 0.25 mg/ml): 1 s

B1: Peptide Dendrimer No. 12 (peptide, from a related filing, part only)
peptide: GPRPG
chain: KKKKK
modifications: also: five-arm dendrimer, all arms GPRPG, C-termini attached to branched core
Clotting activity (seconds), non-irradiated control; extract about 0.25 mg/ml with human fibrinogen 3 mg/ml, 37° C. (human fibrinogen (human)): 1 s | Clotting activity (seconds), storage for 2 weeks post irradiation (30 kGy); extract about 0.25 mg/ml with human fibrinogen 3 mg/ml, 37° C. (human fibrinogen (human)): 1 s | Clotting activity (seconds), storage for 4 weeks post irradiation (30 kGy); extract about 0.25 mg/ml with human fibrinogen 3 mg/ml, 37° C. (human fibrinogen (human)): 1 s | clotting time in human plasma, dendrimer 0.25 mg/ml, 37° C., coagulation analyser (human fibrinogen (human)): < 1 s

From US20180140739A1, “HAEMOSTATIC DEVICE” (HAEMOSTATIX LIMITED, priority 2015, published 2018)
